The record followed here is US20220251182A1, “AGENTS WHICH INHIBIT GADS DIMERIZATION AND METHODS OF USE THEREOF” (Technion Research & Development Foundation Limited, priority 2017, published 2022).

B1: His-tagged Gads SH2 (His-SH2) (protein)
chain: MHHHHHHGSMQFPKWFHEGLSRHQAENLLMGKEVGFFIIRASQSSPGDFSISVRHEDDVQHFKVMRDNKGNYFLWTEKFPSLNKLVDYYRTNSISRQKQIFLRDRTREDQ
B2: MBP-Gads SH2 F92A/R109A (other, not shown: large carriers; small tags and cut ends)
chain: MQFPKWFHEGLSRHQAENLLMGKEVGFFIIRASQSSPGDASISVRHEDDVQHFKVMADNKGNYFLWTEKFPSLNKLVDYYRTNSISRQKQIFLRDRTREDQ
notes: Double mutant in the context of MBP-Gads SH2; also called F92A/R109A SH2 mutant
B3: MBP-Gads SH2 R109A (other)
chain: B2 chain with A40F
notes: Point mutant in the context of MBP-Gads SH2; not shown: N-terminal MBP tag and its linker from pMAL-C5x (NEB)
B4: MBP-Gads SH2 R109D (other, not shown: large carriers; small tags and cut ends)
chain: B2 chain with A40F, A57D
notes: Point mutant in the context of MBP-Gads SH2
B5: full length MBP-tagged Gads (MBP-Gads), wild type (other, not shown: large carriers)
chain: MEAVAKFDFTASGEDELSFHTGDVLKILSNQEEWFKAELGSQEGYVPKNFIDIQFPKWFHEGLSRHQAENLLMGKEVGFFIIRASQSSPGDFSISVRHEDDVQHFKVMRDNKGNYFLWTEKFPSLNKLVDYYRTNSISRQKQIFLRDRTREDQGHRGNSLDRRSQGGPHLSGAVGEEIRPSMNRKLSDHPPTLPLQQHQHQPQPPQYAPAPQQLQQPPQQRYLQHHHFHQERRGGSLDINDGHCGTGLGSEMNAALMHRRHTDPVQLQAAGRVRWARALYDFEALEDDELGFHSGEVVEVLDSSNPSWWTGRLHNKLGLFPANYVAPMTR
notes: Purified as monomeric and dimeric SEC fractions; also called full length Gads; Gads-MBP protein
B6: full length MBP-Gads F92A/R109A (other, not shown: large carriers; small tags and cut ends)
chain: B5 chain with F92A, R109A
notes: Full length human Gads with double mutation; also called full length Gads F92A/R109A
B7: N-terminally twin-strep-tagged full length human Gads-GFP F92A/R109A (other)
chain: B5 chain with F92A, R109A
notes: Expressed in dG32 T cells; also called Gads F92A/R109A; not shown: N-terminal twin-strep tag; C-terminal monomeric GFP (A206K) from pMIGR
B8: MBP-Gads lacking the C-terminal SH3 (ΔCSH3 Gads, Δ274-328) (other)
chain: MEAVAKFDFTASGEDELSFHTGDVLKILSNQEEWFKAELGSQEGYVPKNFIDIQFPKWFHEGLSRHQAENLLMGKEVGFFIIRASQSSPGDFSISVRHEDDVQHFKVMRDNKGNYFLWTEKFPSLNKLVDYYRTNSISRQKQIFLRDRTREDQGHRGNSLDRRSQGGPHLSGAVGEEIRPSMNRKLSDHPPTLPLQQHQHQPQPPQYAPAPQQLQQPPQQRYLQHHHFHQERRGGSLDINDGHCGTGLGSEMNAALMHRRHTDPVQLQAAGRVTR
notes: Deletion of residues 274-328; also called lacking the C-SH3 domain; not shown: N-terminal MBP tag and its linker from pMAL-C5x (NEB)
B9: phospho-LAT (endogenous, TCR-stimulated Jurkat-derived dG32 T cells) (other, UniProt O43561-2 1-233, looked up)
chain: MEEAILVPCVLGLLLLPILAMLMALCVHCHRLPGSYDSTSSDSLYPRGIQFKRPHTVAPWPPAYPPVTSYPPLSQPDLLPIPRSPQPLGGSHRTPSSRRDSDGANSVASYENEEPACEDADEDEDDYHNPGYLVVLPDSTPATSTAAPSAPALSTPGIRDSAFSMESIDDYVNVPESGESAEASLDGSREYVNVSQELHPGAAKTEPAALSSQEAEEVEEEGAPDYENLQELN
modifications: tyrosine-phosphorylated after anti-TCR (C305) stimulation; detected with anti-phospho-LAT (pY132)
notes: Endogenous protein in lysates; also called pLAT; pY132-phosphorylated LAT
B10: MBP-Gads SH2 (SH2 only construct, residues Q54-Q153 of Gads), wild type (protein)
chain: QFPKWFHEGLSRHQAENLLMGKEVGFFIIRASQSSPGDFSISVRHEDDVQHFKVMRDNKGNYFLWTEKFPSLNKLVDYYRTNSISRQKQIFLRDRTREDQ
B11: MBP-Gads lacking the C-terminal SH3 and linker (ΔC-SH3+linker, Δ154-328) (other)
chain: MEAVAKFDFTASGEDELSFHTGDVLKILSNQEEWFKAELGSQEGYVPKNFIDIQFPKWFHEGLSRHQAENLLMGKEVGFFIIRASQSSPGDFSISVRHEDDVQHFKVMRDNKGNYFLWTEKFPSLNKLVDYYRTNSISRQKQIFLRDRTREDQTR
notes: Deletion of residues 154-328; also called lacking the C-SH3 domain and the linker domain; not shown: N-terminal MBP tag and its linker from pMAL-C5x (NEB)
B12: MBP-Gads lacking the N-terminal SH3 (ΔN-SH3 Gads, Δ2-53) (other, not shown: large carriers; small tags and cut ends)
chain: MQFPKWFHEGLSRHQAENLLMGKEVGFFIIRASQSSPGDFSISVRHEDDVQHFKVMRDNKGNYFLWTEKFPSLNKLVDYYRTNSISRQKQIFLRDRTREDQGHRGNSLDRRSQGGPHLSGAVGEEIRPSMNRKLSDHPPTLPLQQHQHQPQPPQYAPAPQQLQQPPQQRYLQHHHFHQERRGGSLDINDGHCGTGLGSEMNAALMHRRHTDPVQLQAAGRVRWARALYDFEALEDDELGFHSGEVVEVLDSSNPSWWTGRLHNKLGLFPANYVAPMTR
notes: Deletion of residues 2-53; also called Gads ΔN; Gads lacking the N-SH3
B13: MBP-Gads lacking the linker (Δlinker Gads, Δ154-267) (other)
chain: MEAVAKFDFTASGEDELSFHTGDVLKILSNQEEWFKAELGSQEGYVPKNFIDIQFPKWFHEGLSRHQAENLLMGKEVGFFIIRASQSSPGDFSISVRHEDDVQHFKVMRDNKGNYFLWTEKFPSLNKLVDYYRTNSISRQKQIFLRDRTREDQQAAGRVRWARALYDFEALEDDELGFHSGEVVEVLDSSNPSWWTGRLHNKLGLFPANYVAPMTR
notes: Deletion of residues 154-267; also called lacking the linker domain; not shown: N-terminal MBP tag and its linker from pMAL-C5x (NEB)

Positions count from the first letter of the chain named. Names may count otherwise. Square brackets hold non-standard residues; d marks the D form. Ends that are not written are not given here. pY = N[C@@H](Cc1ccc(OP(=O)(O)O)cc1)C(=O)O

For one series, the target named is T1, monomeric Gads SH2 (Homo sapiens, UniProt O75791).
T1 construct: The SH2 only construct encoded residues Q54-Q153 of Gads, and was tagged at the N-terminus with either MBP or His; made in house; host or cells: E. coli BL21 codon-plus
T1 sequence (O75791 54-153): B10 chain
The series is described as follows: Size exclusion chromatography of monomeric Gads SH2 incubated with LAT peptides. Conditions: 0.7 μM MBP-Gads SH2 monomeric fraction, 5 μM peptide, 15 minutes on ice. Type of series: binding. Here is the method: FIG. 9A is a schematic representation of two possible modes of Gads binding to 2pY-LAT. […] In FIG. 9C, 0.7 μM full length MBP-Gads from the monomeric fraction, was incubated for 15 minutes at 37° C., either alone (solid line), or in the presence of 5 μM 2pY-LAT peptide (SEQ ID NO: 32, dotted line). […] 20 μM MBP-Gads SH2 from the dimeric fraction was incubated for 30 minutes on ice (blue) or at 37° C. for 15 minutes (red, solid line), followed by an additional 15 minutes at 37° C. in the presence of 40 μM of 2pY-LAT (SEQ ID NO: 32, red dotted line); and then resolved by size exclusion chromatography.
Fast protein liquid chromatography (FPLC)—MBP- and His-tagged proteins were resolved by size exclusion chromatography at 12° C., using an ÄKTA FPLC system (GE Healthcare), fitted with Superdex 200 10/300 or 16/60 HiLoad for MBP-tagged proteins or Superdex 75 10/300 for His-tagged proteins, in column buffer containing 20 mM HEPES pH 7.3, 100 mM NaCl, 1 mM EDTA, 10% glycerol.
Two possible modes of Gads binding to 2pY-LAT were envisioned, single and paired (FIG. 9A). To ensure the availability of both modes, a 7-fold molar excess of 2pY-LAT peptide was applied. In the absence of cooperativity, the large molar excess of unbound SH2-binding sites should favor unpaired binding (FIG. 9A, left).
(SEC sorts molecules by how far they enter the pores of the column.)

Series [1] in a line: nano-DSF of dimeric His-SH2, self-association. In general terms: DSF heats the sample and reads unfolding from a dye or from intrinsic fluorescence.
In series [2] the target is pY171-LAT peptide (singly phosphorylated on Y171). Nature of the series: ITC at 25 C, peptide injected into monomeric MBP-Gads SH2; KD = 1/KA, 1:1 model.
Series [3] concerns the molecule itself. Nature of the series: size exclusion chromatography; self-association.
In series [4] the target is pY171-LAT peptide (singly phosphorylated on Y171). The series is described as follows: isothermal titration calorimetry, 1:1 binding model (Affinimeter), linked-parameter analysis of three repeats. (In general: In ITC the heat of successive injections is recorded.)
Series [5] concerns the molecule itself. The series is described as follows: size exclusion chromatography; self-association. The source holds these as a separate data set.
Series [6] deals with the molecule itself. The series is described as follows: size exclusion chromatography, Superdex 200 10/300 GL; self-association (dimer). Here is the method:
Size-Exclusion Chromatography and Multi-Angle Light Scattering (SEC-MALS)—The average molecular weight of Gads proteins was determined by SEC-MALS. The system consisted of an ÄKTA avant 25, coupled to a UV detector (GE Healthcare) and a miniDAWN triple-angle light-scattering detector (Wyatt Technology). […] Data collection and analysis was performed with Wyatt's ASTRA 6.1.1 software.

Series [7] deals with the molecule itself. Nature of the series: size exclusion chromatography; self-association. This is another data set of the same source.
In series [8] the target is B9. Nature of the series: streptactin pull-down of twin-strep Gads-GFP from dG32 cell lysates, western blot with anti-pY132-LAT.
Series [9] concerns the molecule itself. The series is described as follows: size exclusion chromatography, self-association.
Series [10] addresses T2, N-terminally twin-strep-tagged full length human Gads-GFP F92D (human, UniProt O75791 1-330).
T2 construct: Expressed in dG32 T cells and in Gads-deficient murine BMMCs; also called Gads F92D; F92D-reconstituted; not shown: N-terminal twin-strep tag; C-terminal monomeric GFP (A206K) from pMIGR
T2 sequence: B5 chain with F92D
The series is described as follows: streptactin pull-down of twin-strep Gads-GFP from dG32 cell lysates, western blot with anti-pY132-LAT.

A short description of series [11]: nano-DSF of dimeric MBP-Gads SH2, self-association.
Series [12] concerns the molecule itself. The series is described as follows: analytical size exclusion chromatography of the dimeric fraction after incubation at 37°C; self-association.

Regarding “DDpYVNVPESGESAEASLDGSREpYVNVSQE (DD[pY]VNVPESGESAEASLDGSRE[pY]VNVSQE) [2pY-LAT, 29-residue LAT peptide encompassing tyrosines 171 and 191, doubly phosphorylated]”, in the series with monomeric Gads SH2, the “Gads mobility shift on size exclusion chromatography (paired binding / dimeric form)” value is “dramatic shift towards the dimeric form”. In the case of B1, the “temperature of monomerization (first nano-DSF transition)” value in [1] came to 32.5 °C. Take B2: in series [2], the Kd (in general, the free concentration of one partner at which half of the binding sites on the other are occupied at equilibrium, for simple one-to-one binding) was found to be 335 nM. Moreover, the binding result in series [3] is “no binding”. For the same molecule, in series [4], the H was -9.03 kcal/mol. For the molecule B3, in [5], the binding result is given as “binds”. Same read-out and setting: next, B4: “binds”. As to B5, the binding result in [6] is on record as “binds”. Regarding B6, in series [7], the binding result is “no binding”. As for B7, the binding result in series [8] was “no binding”. For B8, in series [9], the binding result is listed as “binds”. In the case of B9, the binding result in [10] was “no binding”. B10 returned a Kd in series [2] of 177 nM. The “temperature of subtle transition of the dimeric form (nano-DSF)” value in series [11] is “approximately 33 °C”. The H in [4] is -7.23 kcal/mol. Consider B11, for which the binding result in series [9] was “binds”. With B12, the binding result in series [12] was “binds”. In the case of B13, in [9], the binding result was “binds”.
